Substrate in data set [1]: C[C@H](O)[C@H](O)[C@H]1CNc2nc(N)[nH]c(=O)c2N1
Description: (§1) Activity of tetrahydrobiopterin free nNOS.

Substrate in data set [2]: CC(=O)C1Nc2c(nc(N)[nH]c2=O)NC1(C)C
The description is as §1.

Data on 1 protein can be found in ChEMBL document CHEMBL1143118, “6-Acetyl-7,7-dimethyl-5,6,7,8-tetrahydropterin is an activator of nitric oxide synthases” (Bioorg Med Chem Lett, 2008).

B1: Nitric oxide synthase 1 (Homo sapiens), P29475 (protein)
chain: MEDHMFGVQQIQPNVISVRLFKRKVGGLGFLVKERVSKPPVIISDLIRGGAAEQSGLIQAGDIILAVNGRPLVDLSYDSALEVLRGIASETHVVLILRGPEGFTTHLETTFTGDGTPKTIRVTQPLGPPTKAVDLSHQPPAGKEQPLAVDGASGPGNGPQHAYDDGQEAGSLPHANGLAPRPPGQDPAKKATRVSLQGRGENNELLKEIEPVLSLLTSGSRGVKGGAPAKAEMKDMGIQVDRDLDGKSHKPLPLGVENDRVFNDLWGKGNVPVVLNNPYSEKEQPPTSGKQSPTKNGSPSKCPRFLKVKNWETEVVLTDTLHLKSTLETGCTEYICMGSIMHPSQHARRPEDVRTKGQLFPLAKEFIDQYYSSIKRFGSKAHMERLEEVNKEIDTTSTYQLKDTELIYGAKHAWRNASRCVGRIQWSKLQVFDARDCTTAHGMFNYICNHVKYATNKGNLRSAITIFPQRTDGKHDFRVWNSQLIRYAGYKQPDGSTLGDPANVQFTEICIQQGWKPPRGRFDVLPLLLQANGNDPELFQIPPELVLEVPIRHPKFEWFKDLGLKWYGLPAVSNMLLEIGGLEFSACPFSGWYMGTEIGVRDYCDNSRYNILEEVAKKMNLDMRKTSSLWKDQALVEINIAVLYSFQSDKVTIVDHHSATESFIKHMENEYRCRGGCPADWVWIVPPMSGSITPVFHQEMLNYRLTPSFEYQPDPWNTHVWKGTNGTPTKRRAIGFKKLAEAVKFSAKLMGQAMAKRVKATILYATETGKSQAYAKTLCEIFKHAFDAKVMSMEEYDIVHLEHETLVLVVTSTFGNGDPPENGEKFGCALMEMRHPNSVQEERKSYKVRFNSVSSYSDSQKSSGDGPDLRDNFESAGPLANVRFSVFGLGSRAYPHFCAFGHAVDTLLEELGGERILKMREGDELCGQEEAFRTWAKKVFKAACDVFCVGDDVNIEKANNSLISNDRSWKRNKFRLTFVAEAPELTQGLSNVHKKRVSAARLLSRQNLQSPKSSRSTIFVRLHTNGSQELQYQPGDHLGVFPGNHEDLVNALIERLEDAPPVNQMVKVELLEERNTALGVISNWTDELRLPPCTIFQAFKYYLDITTPPTPLQLQQFASLATSEKEKQRLLVLSKGLQEYEEWKWGKNPTIVEVLEEFPSIQMPATLLLTQLSLLQPRYYSISSSPDMYPDEVHLTVAIVSYRTRDGEGPIHHGVCSSWLNRIQADELVPCFVRGAPSFHLPRNPQVPCILVGPGTGIAPFRSFWQQRQFDIQHKGMNPCPMVLVFGCRQSKIDHIYREETLQAKNKGVFRELYTAYSREPDKPKKYVQDILQEQLAESVYRALKEQGGHIYVCGDVTMAADVLKAIQRIMTQQGKLSAEDAGVFISRMRDDNRYHEDIFGVTLRTYEVTNRLRSESIAFIEESKKDTDEVFSS
The kcat is the maximal rate divided by the concentration of active sites. As for B1, the kcat in data set [1] came out at 0.136 s⁻¹; in data set [2], 0.0878 s⁻¹.
